Patent publication US20250066745A1, “MUTANTS AND USE THEREOF” (BGI SHENZHEN, priority 2021, published 2025)
Substitutions are numbered along the chain they refer to. In names and notes the source's numbering stands.

B1: Q152H Q163D T167G S170V G174K Q175E K178N: Gaussia luciferase mutant (protein)
chain: MGVKVLFALICIAVAEAKPTENNEDFNIVAVASNFATTDLDADRGKLPGKKLPLEVLKEMEANARKAGCTRGCLICLSHIKCTPKMKKFIPGRCHTYEGDKESAQGGIGEAIVDIPEIPGFKDLEPMEQFIAQVDLCVDCTTGCLKGLANVHCSDLLKKWLPDRCAGFAVKIQKEVDNIKGAGGD
modifications: SIGNAL (1)..(17)
notes: Gaussia luciferase mutant
B2: Q152R Q163S T167G S170T G174K K178S A182M G183A: Gaussia luciferase mutant (protein)
chain: B1 chain with H152R, D163S, V170T, E175Q, N178S, A182M, G183A
modifications: SIGNAL (1)..(17)
notes: Gaussia luciferase mutant
B3: Q152H Q163T T167G S170D G174N A182M G183A: Gaussia luciferase mutant (protein)
chain: B1 chain with D163T, V170D, K174N, E175Q, N178K, A182M, G183A
modifications: SIGNAL (1)..(17)
notes: Gaussia luciferase mutant
B4: Q152H S170D Q175E A182Y: Gaussia luciferase mutant (protein)
chain: B1 chain with D163Q, G167T, V170D, K174G, N178K, A182Y
modifications: SIGNAL (1)..(17)
notes: Gaussia luciferase mutant
B5: Q152R T167G G174S Q175E K178N A182Y G183A: Gaussia luciferase mutant (protein)
chain: B1 chain with H152R, D163Q, V170S, K174S, A182Y, G183A
modifications: SIGNAL (1)..(17)
notes: Gaussia luciferase mutant
B6: Q152H Q163T T167G S170N Q175E A182L G183A: Gaussia luciferase mutant (protein)
chain: B1 chain with D163T, V170N, K174G, N178K, A182L, G183A
modifications: SIGNAL (1)..(17)
notes: Gaussia luciferase mutant
B7: Q152K Q163S T167G S170V G174K Q175E K180: Gaussia luciferase mutant (protein)
chain: B1 chain with H152K, D163S, N178K
B8: Q152K Q163T S170N G174N K178S A182Y G183A: Gaussia luciferase mutant (protein)
chain: B1 chain with H152K, D163T, G167T, V170N, K174N, E175Q, N178S, A182Y, G183A
modifications: SIGNAL (1)..(17)
notes: Gaussia luciferase mutant
B9: Q152H S170D G174S K178T A182L: Gaussia luciferase mutant (protein)
chain: B1 chain with D163Q, G167T, V170D, K174S, E175Q, N178T, A182L
modifications: SIGNAL (1)..(17)
notes: Gaussia luciferase mutant
B10: Q152K Q163S T167S S170N G174N K178S A182Y G183A: Gaussia luciferase mutant (protein)
chain: B1 chain with H152K, D163S, G167S, V170N, K174N, E175Q, N178S, A182Y, G183A
modifications: SIGNAL (1)..(17)
notes: Gaussia luciferase mutant
B11: Q163T T167S S170V G174N K178N A182Y G183A: Gaussia luciferase mutant (protein)
chain: B1 chain with H152Q, D163T, G167S, K174N, E175Q, A182Y, G183A
modifications: SIGNAL (1)..(17)
notes: Gaussia luciferase mutant
B12: Q152R Q163S T167S S170D G174K Q175E K178N A182M: Gaussia luciferase mutant (protein)
chain: B1 chain with H152R, D163S, G167S, V170D, A182M
modifications: SIGNAL (1)..(17)
notes: Gaussia luciferase mutant
B13: Q152H Q163D T167S S170N G174K A182L G183N: Gaussia luciferase mutant (protein)
chain: B1 chain with G167S, V170N, E175Q, N178K, A182L, G183N
modifications: SIGNAL (1)..(17)
notes: Gaussia luciferase mutant
B14: Q152H Q163D T167S S170D G174K Q175E K178S A182Y G183N: Gaussia luciferase mutant (protein)
chain: B1 chain with G167S, V170D, N178S, A182Y, G183N
modifications: SIGNAL (1)..(17)
notes: Gaussia luciferase mutant
B15: E102K S103T A104G E110G V138D: Gaussia luciferase mutant (protein)
chain: MGVKVLFALICIAVAEAKPTENNEDFNIVAVASNFATTDLDADRGKLPGKKLPLEVLKEMEANARKAGCTRGCLICLSHIKCTPKMKKFIPGRCHTYEGDKKTGQGGIGGAIVDIPEIPGFKDLEPMEQFIAQVDLCDDCTTGCLKGLANVQCSDLLKKWLPQRCATFASKIQGQVDKIKGAGGD
modifications: SIGNAL (1)..(17)
notes: Gaussia luciferase mutant
B16: S103I A104G E110G L124M V138D: Gaussia luciferase mutant (protein)
chain: B15 chain with K102E, T103I, L124M
modifications: SIGNAL (1)..(17)
notes: Gaussia luciferase mutant
B17: E102K S103T A104G E110G V138D I172: Gaussia luciferase mutant (protein)
chain: B15 chain
B18: F26C N27D A30D A32V S33R A36T: Gaussia luciferase mutant (protein)
chain: MGVKVLFALICIAVAEAKPTENNEDCDIVDVVRNFTTTDLDADRGKLPGKKLPLEVLKEMEANARKAGCTRGCLICLSHIKCTPKMKKFIPGRCHTYEGDKESAQGGIGEAIVDIPEIPGFKDLEPMEQFIAQVDLCVDCTTGCLKGLANVQCSDLLKKWLPQRCATFASKIQGQVDKIKGAGGD
modifications: SIGNAL (1)..(17)
notes: Gaussia luciferase mutant

assay: Luminescence activity assay of purified Gaussia luciferase mutants on coelenterazine; type: biochemical; parameters: key to Activity of mutant relative to wild-type Gaussia luciferase without the signal peptide: ratio of mutant luminescence intensity to wild-type Gaussia luciferase; details: Substrate CTZ (Table 16)
Summary of the method: (§1)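 Readout: luminescence intensity, as ratio to signal-peptide-free wild-type enzyme. Enzyme 1 μg/mL, substrate 100 μM stock, 10 μL + 90 μL; buffer 50 mM Tris-HCl pH 8.0, 100 mM NaCl, 0.1% Tween-20.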

| Activity of mutant relative to wild-type Gaussia luciferase without the signal peptide | Molecule |
| --- | --- |
| 1.749 | B1 |
| 1.171 | B2 |
| 0.080 | B3 |
| 0.615 | B4 |
| 0.703 | B5 |
| 0.177 | B6 |
| 0.011 | B7 |
| 0.194 | B8 |
| 4.938 | B9 |
| 0.906 | B10 |
| 0.170 | B11 |
| 4.609 | B12 |
| 0.144 | B13 |
| 0.383 | B14 |
| 0.106 | B15 |
| 1.165 | B16 |
| 0.622 | B17 |
| 0.126 | B18 |

assay: Luminescence activity assay of purified Gaussia luciferase mutants on coelenterazine derivative ZS2; type: biochemical; parameters: key to Activity of mutant relative to wild-type Gaussia luciferase without the signal peptide: ratio of mutant luminescence intensity to wild-type Gaussia luciferase; details: Substrate ZS2 (Table 16)
Summary of the method: as §1

| Activity of mutant relative to wild-type Gaussia luciferase without the signal peptide | Molecule |
| --- | --- |
| 0.862 | B1 |
| 2.367 | B2 |
| 0.001 | B3 |
| 0.723 | B4 |
| 0.481 | B5 |
| 0.087 | B6 |
| 0.136 | B7 |
| 0.026 | B8 |
| 2.672 | B9 |
| 0.819 | B10 |
| 0.138 | B11 |
| 3.139 | B12 |
| 0.159 | B13 |
| 0.068 | B14 |
| 0.065 | B15 |
| 1.337 | B16 |
| 0.550 | B17 |
| 0.166 | B18 |

assay: Luminescence activity assay of purified Gaussia luciferase mutants on fluoro-coelenterazine; type: biochemical; parameters: key to Activity of mutant relative to wild-type Gaussia luciferase without the signal peptide: ratio of mutant luminescence intensity to wild-type Gaussia luciferase; details: Substrate f-CTZ (Table 16)
Summary of the method: as §1

| Activity of mutant relative to wild-type Gaussia luciferase without the signal peptide | Molecule |
| --- | --- |
| 0.215 | B1 |
| 1.864 | B2 |
| 0.478 | B3 |
| 0.583 | B4 |
| 0.404 | B5 |
| 0.172 | B6 |
| 0.512 | B7 |
| 0.299 | B8 |
| 2.069 | B9 |
| 1.175 | B10 |
| 0.135 | B11 |
| 1.020 | B12 |
| 0.234 | B13 |
| 0.509 | B14 |
| 4.919 | B15 |
| 1.701 | B16 |
| 2.719 | B17 |
| 0.130 | B18 |
